Results taken from PMC4739419, “Mutations in the nucleotide binding and hydrolysis domains of Helicobacter pylori MutS2 lead to altered biochemical activities and inactivation of its in vivo function” (BMC Microbiology, 2016).
Where a chain is given by its changes, count along the chain named. Numbers in names are those of the source.

B1: HpMutS2-E413A (enzyme)
chain: MSDAPKRSLNPTLMMNNNNTPPKPLEESLDLKEFIALFKTFFAKERDTIALENDLKQTFTYLNEVDAIGLPTPKSVKESDLIIIKLTKLGTLHLDEIFEIVKRLHYIVVLQNAFKTFTHLKFHERLNAIVLPPFFNDLIALFDDEGKIKQGANATLDALNESLNRLKKESVKIIHHYARSKELAPYLVDTQSHLKHGYECLLLKSGFSGAIKGVVLERSANGYFYLLPESAQKIAQKIAQIGNEIDCCIVEMCQTLSHSLQKHLLFLKFLFKEFDFLDSLQARLNFAKAYNLEFVMPSFTQKKMILENFSHPILKEPKPLNLKFEKSMLAVTGVNAGGKTMLLKSLLSAAFLSKHLIPMKINAHHSIIPYFKEIHAIINDPQNSANNISTFAGRMKQFSALLSKENMLLGVDAIELGTDADEASSLYKTLLEKLLKQNNQIIITTHHKRLSVLMAENKEVELLAALYDEEKERPTYTFLKGVIGKSYAFETALRYGVPHFLIEKAKTFYGEDKEKLNVLIENSSALERELKQKNEHLENALKEQEYLKNAWLLEMEKQKEIFHNKKLELEKSYQQALNILKSEVASKDTSSMHKEIHKASEILSKHKTNQEIPQIITNFQANEKARYKNESVLIVQILDKGYYWIETELGMRLKAHGSLLKKIQKPPKNKFKPPKTTIPKPKEASLRLDLRGQRSEEALDLLDAFLNDALLGGFEEVLICHGKGSGILEKFVKEFLKNHPKVVSFSDAPINLGGSGVKIVKL
notes: also called Walker-B mutant
B2: HpMutS2-G338R (protein)
chain: B1 chain with G338R, A413E
B3: HpMutS2: Helicobacter pylori MutS2 (1-762), C-terminally His6-tagged wild-type protein, nuclease and ABC ATPase (protein)
chain: B1 chain with A413E
modifications: left off: His6, C-terminal, state not stated
notes: Helicobacter pylori MutS2 (1-762), C-terminally His6-tagged wild-type protein, nuclease and ABC ATPase

Experiments:
Single-stranded DNA = assay: Nuclease assay (urea-PAGE); assay type: biochemical; conditions: for DNA cleavage rate: No nucleotide, DNA 1 nM, protein 150 nM, 37 °C
Protocol: (§1) Fig. 6 Effect of nucleotide cofactors on nuclease activity of HpMutS2 and mutants. Plots showing time dependent depletion of substrate DNA (a, b, c) Single-stranded DNA and d, e, f Holliday junction. DNA substrates (1 nM) were incubated with HpMutS2 and mutants (150 nM) at 37 °C. Reactions aliquots were removed at 0, 15, 30, 60, 90, and 120 min. The reactions were stopped using (50 mM EDTA + formamide dye) and the products were electrophoresed on urea-PAGE (15 %). The percentage reduction in substrate was calculated by considering DNA without protein as 100 %. Error bars represent standard deviation from two or more different experiments. (g, panel 1–6) Time dependent cleavage of Holliday junction by HpMutS2 and mutants. Reactions were performed as described in (A-F). Reactions aliquots were removed at 0, 15, 30, 60, 90, and 120 min
(§2) Radiolabeled DNA substrates were incubated with HpMutS2 and mutants in buffer D (50 mM Tris pH 8.0, 50 mM NaCl, 1 mM DTT, and 5 mM MgCl2). ATP, ADP, and ATPγS (1 mM each) were added separately to the reaction mixtures. 20 μl reaction aliquots were reomoved at 0, 15, 30, 60, 90, and 120 min. Reactions were stopped by adding EDTA (50 mM) + formammide dye (98 % formamide, 0.1 % bromophenol blue and 0.1 % xylene cyanol). The DNA substrates were denatured at 95 °C for 15 min and the reaction mixtures were separated on denaturing polyacrylamide gel (15 %) containing urea (7 M). The results were visualized and analysed as described earlier. DNA cleavage rates were estimated by dividing the total product formed (pM) in linear range of enzymatic activity by corresponding incubation time (min).

Holliday junction = assay: Nuclease assay (urea-PAGE); assay type: biochemical; conditions: for DNA cleavage rate: No nucleotide, DNA 1 nM, protein 150 nM, 37 °C
Protocol: as §1, §2

chymotrypsin = assay: Limited proteolysis with chymotrypsin; conditions: 37 °C; for effect of nucleotide pre-incubation on proteolysis: pre-incubation with ADP, ATP or ATPγS 1 mM, 15 min; for susceptibility to proteolysis compared to the wild-type protein: protein 4 μM, chymotrypsin 1.25 ng, 30 min, no nucleotide
Protocol: (§3) Fig. 4 Nucleotide and mutation induced conformational changes in HpMutS2. a Limited proteolysis. Proteins (4 μM) either free or pre-incubated with nucleotides (1 mM) were incubated with chymotrypsin (1.25 ng) for 30 min at 37 °C. All proteolysis reactions were performed in 1X buffer A lacking magnesium. Reactions were stopped by adding a protease inhibitor cocktail and the products were separated on SDS-PAGE (10 %). Lane M: Molecular weight marker. b Thermal stability profiles of wild-type HpMutS2, HpMutS2-G338R, and HpMutS2-E413A. Proteins (1 μM) dialyzed in 50 mM Tris-Cl and 100 mM NaCl were subjected to thermal denaturation and spectra were recorded at 222 nm using Jasco-815 spectropolarimeter
HpMutS2 (4 μM) was incubated with chymotrypsin (1.25 ng) or in buffer A lacking magnesium at 37 °C for 30 min. The reactions were stopped by addition of protease inhibitor cocktail (Sigma) and the proteolyzed products were separated on SDS-PAGE (10 %). Nucleotide cofactors (1 mM) were pre-incubated with the proteins for 15 min at 37 °C before addition of chymotrypsin. The heat denaturation of proteins was performed by heating them at 95 °C for 10 min. All the reactions were performed in 1X buffer A. Protein bands were detected by staining with Coomassie Brilliant Blue.

[1] = Thermal denaturation monitored by CD at 222 nm; assay type: physicochemical; conditions: for temperature of 50 % unfolding: 25–80 °C; for thermal stability compared to the other variants: higher temperatures
Protocol: as §3
Freshly prepared proteins were dialyzed twice in buffer B for 4–6 h with at least two changes of the buffer. Far-UV CD spectra of proteins (1 μM) were obtained using a Jasco-815 spectropolarimeter equipped with a Peltier stage (Japan Spectroscopic Co., Japan) at 25 °C. The spectra were recorded between 200–300 nm with 20 mdeg sensitivity at a scan speed of 50 nm using 2 mm path length cuvette with a bandwidth of 2 nm. Control titrations were performed and all the CD spectra were corrected by subtracting control spectra. Thermal denaturation of the proteins was monitored at single wavelength (222 nm) by increasing temperature from 25 °C-80 °C. The percentage of unfolded protein was calculated by considering the protein at 25 °C as 100 % folded.

| Molecule | DNA cleavage rate (Single-stranded DNA) [pM/min] | fold reduced nuclease activity compared to wild-type (Single-stranded DNA; no nucleotide) | DNA cleavage rate (Holliday junction) [pM/min] | fold reduced nuclease activity compared to wild-type (Holliday junction; no nucleotide) | effect of nucleotide pre-incubation on proteolysis (chymotrypsin) | susceptibility to proteolysis compared to the wild-type protein (chymotrypsin) | temperature of 50 % unfolding [1] | thermal stability compared to the other variants [1] | fold elevated nuclease activity compared to wild-type (Single-stranded DNA; no nucleotide) | fold elevated nuclease activity compared to wild-type (Holliday junction; no nucleotide) | fold reduction of Holliday junction cleavage rate by ADP (Holliday junction; ADP 1 mM vs no nucleotide) | fold reduction of Holliday junction cleavage activity in presence of ADP compared to ATP (Holliday junction; ADP vs ATP, 1 mM) | fold stimulation of Holliday junction cleavage rate by ATP (Holliday junction; ATP 1 mM vs no nucleotide) | fold reduced nuclease activity in presence of ATPγS (Holliday junction; ATPγS 1 mM vs no nucleotide) |
| --- | --- | --- | --- | --- | --- | --- | --- | --- | --- | --- | --- | --- | --- | --- |
| B1 | 6.50 ± 0.55 | ~ 4 fold | 4.92 ± 1.25 | ~ 4 fold | only a slight effect | much more resistant | ~ 50 °C | more unstable |  |  |  |  |  |  |
| B2 | 40.19 ± 8.73 |  | 41.59 ± 9.53 |  | only a slight effect | slightly more susceptible to proteolysis |  | more stable at up to 80 °C | ~ 1.6 fold | ~ 1.6 fold |  |  |  |  |
| B3 | 24.82 ± 1.15 |  | 26.49 ± 3.95 |  | proteolysis was significantly reduced |  | ~ 50 °C |  |  |  | ~ 1.5 fold | ~ 2.1 fold | ~ 1.5 fold | ~ 1.5 fold |
